B1: PKNOX1 (protein, UniProt P55347 1-436, looked up)
Homeobox protein PKNOX1: MMATQTLSIDSYQDGQQMQVVTELKTEQDPNCSEPDAEGVSPPPVESQTPMDVDKQAIYRHPLFPLLALLFEKCEQSTQGSEGTTSASFDVDIENFVRKQEKEGKPFFCEDPETDNLMVKAIQVLRIHLLELEKVNELCKDFCSRYIACLKTKMNSETLLSGEPGSPYSPVQSQQIQSAITGTISPQGIVVPASALQQGNVAMATVAGGTVYQPVTVVTPQGQVVTQTLSPGTIRIQNSQLQLQLNQDLSILHQDDGSSKNKRGVLPKHATNVMRSWLFQHIGHPYPTEDEKKQIAAQTNLTLLQVNNWFINARRRILQPMLDSSCSETPKTKKKTAQNRPVQRFWPDSIASGVAQPPPSELTMSEGAVVTITTPVNMNVDSLQSLSSDGATLAVQQVMMAGQSEDESVDSTEEDAGALAPAHISGLVLENSDSLQ
B2: PLEKHG4 (protein, UniProt Q58EX7 1-1191, looked up)
Puratrophin-1: MERPLENGDESPDSQGHATDWRFAVCSFRDAWEEEEPASQMHVKDPGPPRPPAGATQDEELQGSPLSRKFQLPPAADESGDAQRGTVESSSVLSEGPGPSGVESLLCPMSSHLSLAQGESDTPGVGLVGDPGPSRAMPSGLSPGALDSDPVGLGDPLSEISKLLEAAPSGSGLPKPADCLLAQDLCWELLASGMATLPGTRDVQGRAVLLLCAHSPAWLQSECSSQELIRLLLYLRSIPRPEVQALGLTVLVDARICAPSSSLFSGLSQLQEAAPGAVYQVLLVGSTLLKEVPSGLQLEQLPSQSLLTHIPTAGLPTSLGGGLPYCHQAWLDFRRRLEALLQNCQAACALLQGAIESVKAVPQPMEPGEVGQLLQQTEVLMQQVLDSPWLAWLQCQGGRELTWLKQEVPEVTLSPDYRTAMDKADELYDRVDGLLHQLTLQSNQRIQALELVQTLEARESGLHQIEVWLQQVGWPALEEAGEPSLDMLLQAQGSFQELYQVAQEQVRQGEKFLQPLTGWEAAELDPPGARFLALRAQLTEFSRALAQRCQRLADAERLFQLFREALTWAEEGQRVLAELEQERPGVVLQQLQLHWTRHPDLPPAHFRKMWALATGLGSEAIRQECRWAWARCQDTWLALDQKLEASLKLPPVGSTASLCVSQVPAAPAHPPLRKAYSFDRNLGQSLSEPACHCHHAATIAACRRPEAGGGALPQASPTVPPPGSSDPRSLNRLQLVLAEMVATEREYVRALEYTMENYFPELDRPDVPQGLRGQRAHLFGNLEKLRDFHCHFFLRELEACTRHPPRVAYAFLRHRVQFGMYALYSKNKPRSDALMSSYGHTFFKDKQQALGDHLDLASYLLKPIQRMGKYALLLQELARACGGPTQELSALREAQSLVHFQLRHGNDLLAMDAIQGCDVNLKEQGQLVRQDEFVVRTGRHKSVRRIFLFEELLLFSKPRHGPTGVDTFAYKRSFKMADLGLTECCGNSNLRFEIWFRRRKARDTFVLQASSLAIKQAWTADISHLLWRQAVHNKEVRMAEMVSMGVGNKAFRDIAPSEEAINDRTVNYVLKCREVRSRASIAVAPFDHDSLYLGASNSLPGDPASCSVLGSLNLHLYRDPALLGLRCPLYPSFPEEAALEAEAELGGQPSLTAEDSEISSQCPSASGSSGSDSSCVSGQALGRGLEDLPCV
B3: N-PAC (protein, UniProt Q49A26 1-553, looked up)
Cytokine-like nuclear factor …: MAAVSLRLGDLVWGKLGRYPPWPGKIVNPPKDLKKPRGKKCFFVKFFGTEDHAWIKVEQLKPYHAHKEEMIKINKGKRFQQAVDAVEEFLRRAKGKDQTSSHNSSDDKNRRNSSEERSRPNSGDEKRKLSLSEGKVKKNMGEGKKRVSSGSSERGSKSPLKRAQEQSPRKRGRPPKDEKDLTIPESSTVKGMMAGPMAAFKWQPTASEPVKDADPHFHHFLLSQTEKPAVCYQAITKKLKICEEETGSTSIQAADSTAVNGSITPTDKKIGFLGLGLMGSGIVSNLLKMGHTVTVWNRTAEKCDLFIQEGARLGRTPAEVVSTCDITFACVSDPKAAKDLVLGPSGVLQGIRPGKCYVDMSTVDADTVTELAQVIVSRGGRFLEAPVSGNQQLSNDGMLVILAAGDRGLYEDCSSCFQAMGKTSFFLGEVGNAAKMMLIVNMVQGSFMATIAEGLTLAQVTGQSQQTLLDILNQGQLASIFLDQKCQNILQGNFKPDFYLKYIQKDLRLAIALGDAVNHPTPMAAAANEVYKRAKALDQSDNDMSAVYRAYIH
B4: PNPLA8 (protein, UniProt Q9NP80 1-782, looked up)
Calcium-independent …: MSINLTVDIYIYLLSNARSVCGKQRSKQLYFLFSPKHYWRISHISLQRGFHTNIIRCKWTKSEAHSCSKHCYSPSNHGLHIGILKLSTSAPKGLTKVNICMSRIKSTLNSVSKAVFGNQNEMISRLAQFKPSSQILRKVSDSGWLKQKNIKQAIKSLKKYSDKSAEKSPFPEEKSHIIDKEEDIGKRSLFHYTSSITTKFGDSFYFLSNHINSYFKRKEKMSQQKENEHFRDKSELEDKKVEEGKLRSPDPGILAYKPGSESVHTVDKPTSPSAIPDVLQVSTKQSIANFLSRPTEGVQALVGGYIGGLVPKLKYDSKSQSEEQEEPAKTDQAVSKDRNAEEKKRLSLQREKIIARVSIDNRTRALVQALRRTTDPKLCITRVEELTFHLLEFPEGKGVAVKERIIPYLLRLRQIKDETLQAAVREILALIGYVDPVKGRGIRILSIDGGGTRGVVALQTLRKLVELTQKPVHQLFDYICGVSTGAILAFMLGLFHMPLDECEELYRKLGSDVFSQNVIVGTVKMSWSHAFYDSQTWENILKDRMGSALMIETARNPTCPKVAAVSTIVNRGITPKAFVFRNYGHFPGINSHYLGGCQYKMWQAIRASSAAPGYFAEYALGNDLHQDGGLLLNNPSALAMHECKCLWPDVPLECIVSLGTGRYESDVRNTVTYTSLKTKLSNVINSATDTEEVHIMLDGLLPPDTYFRFNPVMCENIPLDESRNEKLDQLQLEGLKYIERNEQKMKKVAKILSQEKTTLQKINDWIKLKTDMYEGLPFFSKL
B5: PICK1 (protein, UniProt Q9NRD5 1-415, looked up)
PRKCA-binding protein: MFADLDYDIEEDKLGIPTVPGKVTLQKDAQNLIGISIGGGAQYCPCLYIVQVFDNTPAALDGTVAAGDEITGVNGRSIKGKTKVEVAKMIQEVKGEVTIHYNKLQADPKQGMSLDIVLKKVKHRLVENMSSGTADALGLSRAILCNDGLVKRLEELERTAELYKGMTEHTKNLLRAFYELSQTHRAFGDVFSVIGVREPQPAASEAFVKFADAHRSIEKFGIRLLKTIKPMLTDLNTYLNKAIPDTRLTIKKYLDVKFEYLSYCLKVKEMDDEEYSCIALGEPLYRVSTGNYEYRLILRCRQEARARFSQMRKDVLEKMELLDQKHVQDIVFQLQRLVSTMSKYYNDCYAVLRDADVFPIEVDLAHTTLAYGLNQEEFTDGEEEEEEEDTAAGEPSRDTRGAAGPLDKGGSWCDS
B6: PCYT2 (protein, UniProt Q99447 1-389, looked up)
Ethanolamine-phosphate …: MIRNGRGAAGGAEQPGPGGRRAVRVWCDGCYDMVHYGHSNQLRQARAMGDYLIVGVHTDEEIAKHKGPPVFTQEERYKMVQAIKWVDEVVPAAPYVTTLETLDKYNCDFCVHGNDITLTVDGRDTYEEVKQAGRYRECKRTQGVSTTDLVGRMLLVTKAHHSSQEMSSEYREYADSFGKCPGGRNPWTGVSQFLQTSQKIIQFASGKEPQPGETVIYVAGAFDLFHIGHVDFLEKVHRLAERPYIIAGLHFDQEVNHYKGKNYPIMNLHERTLSVLACRYVSEVVIGAPYAVTAELLSHFKVDLVCHGKTEIIPDRDGSDPYQEPKRRGIFRQIDSGSNLTTDLIVQRIITNRLEYEARNQKKEAKELAFLEAARQQAAQPLGERDGDF
B7: PDLIM5 (protein, UniProt Q96HC4 2-596, looked up)
PDZ and LIM domain protein 5: SNYSVSLVGPAPWGFRLQGGKDFNMPLTISSLKDGGKAAQANVRIGDVVLSIDGINAQGMTHLEAQNKIKGCTGSLNMTLQRASAAPKPEPVPVQKGEPKEVVKPVPITSPAVSKVTSTNNMAYNKAPRPFGSVSSPKVTSIPSPSSAFTPAHATTSSHASPSPVAAVTPPLFAASGLHANANLSADQSPSALSAGKTAVNVPRQPTVTSVCSETSQELAEGQRRGSQGDSKQQNGPPRKHIVERYTEFYHVPTHSDASKKRLIEDTEDWRPRTGTTQSRSFRILAQITGTEHLKESEADNTKKANNSQEPSPQLASSVASTRSMPESLDSPTSGRPGVTSLTAAAAFKPVGSTGVIKSPSWQRPNQGVPSTGRISNSATYSGSVAPANSALGQTQPSDQDTLVQRAEHIPAGKRTPMCAHCNQVIRGPFLVALGKSWHPEEFNCAHCKNTMAYIGFVEEKGALYCELCYEKFFAPECGRCQRKILGEVISALKQTWHVSCFVCVACGKPIRNNVFHLEDGEPYCETDYYALFGTICHGCEFPIEAGDMFLEALGYTWHDTCFVCSVCCESLEGQTFFSKKDKPLCKKHAHSVNF
B8: NUP62 (protein, UniProt P37198 2-522, looked up)
Nuclear pore glycoprotein p62: SGFNFGGTGAPTGGFTFGTAKTATTTPATGFSFSTSGTGGFNFGAPFQPATSTPSTGLFSLATQTPATQTTGFTFGTATLASGGTGFSLGIGASKLNLSNTAATPAMANPSGFGLGSSNLTNAISSTVTSSQGTAPTGFVFGPSTTSVAPATTSGGFSFTGGSTAQPSGFNIGSAGNSAQPTAPATLPFTPATPAATTAGATQPAAPTPTATITSTGPSLFASIATAPTSSATTGLSLCTPVTTAGAPTAGTQGFSLKAPGAASGTSTTTSTAATATATTTSSSSTTGFALNLKPLAPAGIPSNTAAAVTAPPGPGAAAGAAASSAMTYAQLESLINKWSLELEDQERHFLQQATQVNAWDRTLIENGEKITSLHREVEKVKLDQKRLDQELDFILSQQKELEDLLSPLEELVKEQSGTIYLQHADEEREKTYKLAENIDAQLKRMAQDLKDIIEHLNTSGAPADTSDPLQQICKILNAHMDSLQWIDQNSALLQRKVEEVTKVCEGRRKEQERSFRITFD

Experiments:
HCV proteins = target: T1, HCV proteins (Hepatitis C virus genotype 1b, UniProt Q9WMX2); assay: Validation by Y2H pairwise matrices; type: binding; details: validation of interaction with HCV protein NS3;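 further: yeast two-hybrid pairwise tests of interactions first found in Y2H screens of HCV bait proteins against human cDNA libraries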
T1 construct: expressed in transfected cells
Description: A comprehensive interactome map between HCV and cellular proteins was generated by Y2H screens. Twenty seven constructs encoding full-length HCV mature proteins or discrete domains were cloned using a recombination-based cloning system (10) (FIG. 6). Four independent screens were performed with each HCV bait protein, probing two distinct human cDNA libraries (Supplementary Methods). […] Two validation methods were used to assess the confidence of the IMAP Y2H dataset.

[1] = target: T2, HCV ORFs (Gal4-DB fusions) (Hepatitis C virus genotype 1b, UniProt Q9WMX2); type: binding, HCV genotype 1b, isolate con1; details: HCV protein NS3 as bait; human protein as prey
T2 construct: expressed in transfected cells; host or cells: Saccharomyces cerevisiae MAV203 (IMAP1) / AH109 (IMAP2)
Description: (§1) HCV ORFs were transferred from pDONR223 into bait vector (pPC97) to be expressed as Gal4-DB fusions in yeast. Two different screening methods were used (IMAP1 and IMAP2). Both for IMAP1 and IMAP2 strategies and because bait constructs sometimes self-transactivate reporter genes, SD-L-H culture medium were supplemented with 3-aminotriazole (3-AT). Appropriate concentrations of this drug were determined by growing bait strains on SD-L-H medium supplemented with increasing concentrations of 3-AT. […] For IMAP1, bait vectors were introduced in MAV203 yeast strain and both human spleen and foetal brain AD-cDNA libraries (Invitrogen) were screened by transformation as described (7). All primary positive clones (selected on SD-W-L-H+3-AT) were tested by further phenotypic assay using two additional reporter genes: LacZ (X-Gal colorimetric assay) and URA3 (growth assay on 5-FOA supplemented medium). […] AD-cDNA were PCR-amplified and inserts were sequenced to identify interactors. IMAP2 screens were performed by yeast mating, using AH109 and Y187 yeast strains (Clontech (8)). Bait vectors were transformed into AH109 (bait strain) and human spleen and foetal brain AD-cDNA libraries (Invitrogen) were transformed into Y187 (prey strain). Single bait strains were mated with prey strains then diploids were plated on SD-W-L-H+3-AT medium. Positive clones were maintained onto this selective medium for 15 days to eliminate any contaminant AD-cDNA plasmid (9). AD-cDNAs were PCR amplified and inserts were sequenced.
(§2) We have developed a bioinformatic pipeline that assigns each IST to its native human genome transcript. […] Gal4 motif was searched (last 87 bases of GAL4-AD), sequences downstream of this motif were translated into peptides and aligned using BLASTP against the REFSEQ (http://www.ncbi.nlm.nih.gov/RefSeq/) human protein sequence database (release 04/2007). Low-confidence alignments (E value>10^−10, identity <80%) and premature STOP codon containing sequences were eliminated. Only in-frame proteins and high quality sequences were further considered

[2] = test system: HCV ORFs (Gal4-DB fusions); type: binding, HCV genotype 1b, isolate con1; details: human protein listed by gene symbol; the value names the HCV protein it interacts with
Description: as §1, §2
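Wherever IMAP Y2H IMAP1 (number of IST) is given: yeast two-hybrid screens using HCV genotype 1b proteins fused to Gal4-DB as baits against prey cDNA libraries from human spleen and foetal brain, IMAP1 via transformation and IMAP2 via mating.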
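Wherever IMAP Y2H IMAP2 (number of IST) is given: yeast two-hybrid screens using HCV genotype 1b proteins fused to Gal4-DB as baits against prey cDNA libraries from human spleen and foetal brain, IMAP1 via transformation and IMAP2 via mating.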
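Wherever Interaction with viral protein is given: yeast two-hybrid screens using HCV genotype 1b proteins fused to Gal4-DB as baits against prey cDNA libraries from human spleen and foetal brain, IMAP1 via transformation and IMAP2 via mating.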

T1 sequence (Q9WMX2 1027-1657): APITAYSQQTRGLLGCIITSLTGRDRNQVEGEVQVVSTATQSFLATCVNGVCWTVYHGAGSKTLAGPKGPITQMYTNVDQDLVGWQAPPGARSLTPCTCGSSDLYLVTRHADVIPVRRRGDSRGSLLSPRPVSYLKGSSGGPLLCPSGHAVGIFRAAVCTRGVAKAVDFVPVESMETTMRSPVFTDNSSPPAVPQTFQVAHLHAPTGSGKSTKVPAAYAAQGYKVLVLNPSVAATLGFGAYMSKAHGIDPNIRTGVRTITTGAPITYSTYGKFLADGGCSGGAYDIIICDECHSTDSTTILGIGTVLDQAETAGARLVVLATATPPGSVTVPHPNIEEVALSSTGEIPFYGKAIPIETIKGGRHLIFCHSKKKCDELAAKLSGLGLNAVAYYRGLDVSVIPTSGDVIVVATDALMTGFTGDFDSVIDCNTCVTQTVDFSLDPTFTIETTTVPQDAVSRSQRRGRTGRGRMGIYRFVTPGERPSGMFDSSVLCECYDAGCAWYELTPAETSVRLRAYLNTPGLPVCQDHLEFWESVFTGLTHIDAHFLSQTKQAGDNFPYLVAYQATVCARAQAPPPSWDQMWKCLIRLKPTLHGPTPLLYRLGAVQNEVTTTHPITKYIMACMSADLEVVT
T2 sequence (Q9WMX2 1027-1657): as above

| Molecule | Y2H matrices (HCV proteins) | IMAP Y2H IMAP1 (number of IST) [1] | Interaction with viral protein [2] | IMAP Y2H IMAP2 (number of IST) [1] |
| --- | --- | --- | --- | --- |
| B1 | + | 1 | NS3 |  |
| B2 | + | 1 | NS3 |  |
| B3 | + | 2 | NS3 | 11 |
| B4 | + | 1 | NS3 |  |
| B5 | + | 3 | NS3 |  |
| B6 | + | 1 | NS3 |  |
| B7 | + | 1 | NS3 |  |
| B8 | + | 3 | NS3 |  |
